Test results from patent US20180009889A1 (Novartis, published 2018).
Changes are numbered by the printed parent chain.

Legend:
Human Notch3-Gal4-VP16 [1] = molecular target: Human Notch3-Gal4-VP16 (human); test: cell-based or functional assay
EGF32 NRR (cyno) [2] = molecular target: T1, EGF32 NRR (cyno) (cynomolgus monkey); test: Biacore (SPR); set-up not stated on the sheet
T1 construct: recombinant, C-terminal six histidine tag

EGF32 NRR (cyno) [3] = molecular target: T1, EGF32 NRR (cyno); test: ELISA: IgG titrated on directly coated recombinant antigen
[4] = molecular target: T2, Notch1 intracellular domain (ICD1) (UniProt P46531 1754-2555); test: Western blot of lysates of T-cell acute lymphoblastic leukemia cell lines
T2 construct: domain: Notch1 intracellular domain (ICD1)
T2 sequence (P46531 1754-2555 limits assumed): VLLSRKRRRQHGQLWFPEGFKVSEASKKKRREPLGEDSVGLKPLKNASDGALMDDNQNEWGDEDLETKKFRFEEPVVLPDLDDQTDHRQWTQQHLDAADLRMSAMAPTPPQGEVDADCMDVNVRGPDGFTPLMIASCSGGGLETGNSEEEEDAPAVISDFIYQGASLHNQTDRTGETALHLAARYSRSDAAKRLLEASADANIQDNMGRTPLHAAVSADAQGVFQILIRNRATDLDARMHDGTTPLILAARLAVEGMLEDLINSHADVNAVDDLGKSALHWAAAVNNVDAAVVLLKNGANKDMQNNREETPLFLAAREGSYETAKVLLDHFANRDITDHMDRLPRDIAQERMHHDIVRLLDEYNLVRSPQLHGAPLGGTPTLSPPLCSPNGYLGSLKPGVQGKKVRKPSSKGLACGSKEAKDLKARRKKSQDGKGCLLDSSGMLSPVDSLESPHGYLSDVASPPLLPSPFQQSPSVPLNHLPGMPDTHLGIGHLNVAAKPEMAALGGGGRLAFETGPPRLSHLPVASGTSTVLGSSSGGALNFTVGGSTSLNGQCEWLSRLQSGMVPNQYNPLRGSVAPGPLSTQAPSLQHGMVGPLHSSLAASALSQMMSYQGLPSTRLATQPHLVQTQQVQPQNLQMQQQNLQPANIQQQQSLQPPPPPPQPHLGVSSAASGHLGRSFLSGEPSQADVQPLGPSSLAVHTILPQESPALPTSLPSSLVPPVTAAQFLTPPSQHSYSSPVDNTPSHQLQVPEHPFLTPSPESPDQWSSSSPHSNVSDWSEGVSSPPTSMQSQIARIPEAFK

[5] = molecular target: T3, Gamma secretase cleaved form of the Notch3 intracellular domain (ICD3) (human, UniProt Q9UM47 1662-2321); test: Western blot of TALL-1 cell lysates with hybridoma sub-clone supernatant
T3 construct: also called Notch3 ICD
T3 sequence: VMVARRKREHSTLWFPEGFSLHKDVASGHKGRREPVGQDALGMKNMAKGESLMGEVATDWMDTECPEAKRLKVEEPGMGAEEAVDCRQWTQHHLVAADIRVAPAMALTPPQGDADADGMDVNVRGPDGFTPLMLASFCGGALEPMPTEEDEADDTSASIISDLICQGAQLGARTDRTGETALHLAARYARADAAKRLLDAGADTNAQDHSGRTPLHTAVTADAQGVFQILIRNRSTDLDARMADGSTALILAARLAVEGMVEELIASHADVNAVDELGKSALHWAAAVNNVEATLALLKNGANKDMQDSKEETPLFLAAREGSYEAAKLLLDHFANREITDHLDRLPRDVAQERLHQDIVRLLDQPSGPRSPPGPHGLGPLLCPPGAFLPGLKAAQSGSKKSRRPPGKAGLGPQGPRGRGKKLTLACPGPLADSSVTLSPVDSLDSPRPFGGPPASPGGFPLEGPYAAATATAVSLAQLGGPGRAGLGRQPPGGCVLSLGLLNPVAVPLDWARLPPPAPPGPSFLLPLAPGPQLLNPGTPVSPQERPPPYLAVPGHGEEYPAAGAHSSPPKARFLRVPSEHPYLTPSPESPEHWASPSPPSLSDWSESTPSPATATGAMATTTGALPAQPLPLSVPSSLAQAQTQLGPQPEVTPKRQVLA

[6] = molecular target: T4, ICD3 of MDA-MB468 cells (frame-shift mutation at amino acid 2034, premature stop) (human); test: Western blot of MDA-MB468 cell lysates
T4 construct: also called smaller ICD3; faster migrating ICD3
T4 chain: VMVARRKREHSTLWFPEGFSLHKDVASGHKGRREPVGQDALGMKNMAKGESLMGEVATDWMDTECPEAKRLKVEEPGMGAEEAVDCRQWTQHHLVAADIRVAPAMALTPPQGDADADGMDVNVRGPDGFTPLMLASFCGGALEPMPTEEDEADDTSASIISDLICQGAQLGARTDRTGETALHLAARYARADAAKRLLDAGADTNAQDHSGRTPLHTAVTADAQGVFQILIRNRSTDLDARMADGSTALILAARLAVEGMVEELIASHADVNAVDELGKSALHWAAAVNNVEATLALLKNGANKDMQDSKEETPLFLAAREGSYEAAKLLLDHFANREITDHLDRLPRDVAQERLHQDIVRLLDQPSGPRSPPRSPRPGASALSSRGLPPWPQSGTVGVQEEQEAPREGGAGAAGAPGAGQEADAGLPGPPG

EGF32 NRR (human) [7] = test: Biacore (SPR); set-up not stated on the sheet
EGF32 NRR (mouse) [8] = molecular target: T5, EGF32 NRR (mouse) (mouse, UniProt Q61982); test: Biacore (SPR); set-up not stated on the sheet
T5 construct: recombinant, C-terminal six histidine tag

[9] = molecular target: T6, Human Notch 3 (wild type) (human, UniProt Q9UM47 40-2321); test: FACS on U2OS_N3 cells, with U2OS_parental cells as control
T6 construct: also called Notch 3 receptor

EGF32 NRR (human) [10] = test: ELISA: IgG titrated on directly coated recombinant antigen
EGF32 NRR (mouse) [11] = molecular target: T5, EGF32 NRR (mouse); test: as above
EGF32 NRR (cyno) [12] = molecular target: T1, EGF32 NRR (cyno); test: as above; remark: listed apart in the source
[13] = molecular target: T7, Human Notch3 Negative Regulatory Region (NRR), residues 1378 to 1640 of human Notch3, with C-terminal His tag (human, UniProt Q9UM47 1378-1640); test: HDx-MS without Ca2+, IgG with Notch 3 NRR
T7 construct: also called Notch3 NRR; Notch 3 NRR

Human Notch3-Gal4-VP16 [14] = molecular target: Human Notch3-Gal4-VP16 (human); test: cell-based or functional assay; remark: listed apart in the source
cyno LBD [15] = molecular target: T8, cyno LBD; test: Biacore (SPR); set-up not stated on the sheet
T8 construct: also called N3_EGF4-11_Fc cyno

[16] = molecular target: T6, Human Notch 3 (wild type); test: FACS on U2OS_N3 cells (U2OS over-expressing human Notch3)
cyno LBD [17] = molecular target: T8, cyno LBD; test: ELISA: IgG titrated on directly coated recombinant antigen
cyno LBD [18] = molecular target: T8, cyno LBD; test: as above; remark: listed apart in the source
Human Notch3-Gal4-VP16 [19] = molecular target: Human Notch3-Gal4-VP16 (human); test: cell-based or functional assay; remark: listed apart in the source

B1: 20345 (antibody, human IgG1, kappa, V domains shown)
VH: QVQLVQSGAEVKKPGSSVKVSCKASGGTFSSYTISWVRQAPGQGLEWMGWIKPKLGMAHYAQKFQGRVTITADESTSTAYMELSSLRSEDTAVYYCARGSFWFGYWGQGTLVTVSS
VL: DIQMTQSPSSLSASVGDRVTITCRASQGINNYLNWYQQKPGKAPKLLIYDASKLQSGVPSRFSGSGSGTDFTLTISSLQPEDFATYYCQQYLQYPMTFGQGTKVEIKR
% inhibition, Delta 1 co-culture Notch3 reporter gene assay (Human Notch3-Gal4-VP16 [1]): 19%
% inhibition, Jagged1 co-culture Notch3 reporter gene assay (Human Notch3-Gal4-VP16 [1]): -88%
IC50, Delta 1 co-culture Notch3 reporter gene assay (Human Notch3-Gal4-VP16 [1]): 0.3 nM
IC50, Jagged1 co-culture Notch3 reporter gene assay (Human Notch3-Gal4-VP16 [1]): 0.4 nM
Kd (EGF32 NRR (cyno) [2]): 0.7 nM
EC50 (EGF32 NRR (cyno) [3]): 0.6 nM

B2: 20350 (antibody, human IgG1, kappa, V domains shown)
VH: B1 VH with K54R, L55W, M57A
VL: B1 VL
Kd (EGF32 NRR (cyno) [2]): 0.3 nM
EC50 (EGF32 NRR (cyno) [3]): 1.4 nM

B3: 12225 (antibody, human IgG1, kappa, V domains shown)
VH: B1 VH with K54A, L55F, M57T, H59N
VL: B1 VL
notes: also called MOR 12225
% inhibition, Delta 1 co-culture Notch3 reporter gene assay (Human Notch3-Gal4-VP16 [1]): -8%
% inhibition, Jagged1 co-culture Notch3 reporter gene assay (Human Notch3-Gal4-VP16 [1]): -165%
IC50, Jagged1 co-culture Notch3 reporter gene assay (Human Notch3-Gal4-VP16 [1]): 5.8 nM
Kd (EGF32 NRR (cyno) [2]): 2.7 nM
EC50 (EGF32 NRR (cyno) [3]): 0.9 nM

B4: 20351 (antibody, human IgG1, kappa, V domains shown)
VH: B1 VH with K54R, L55Y, M57A, H59M
VL: B1 VL
% inhibition, Delta 1 co-culture Notch3 reporter gene assay (Human Notch3-Gal4-VP16 [1]): 30%
% inhibition, Jagged1 co-culture Notch3 reporter gene assay (Human Notch3-Gal4-VP16 [1]): -50%
IC50, Delta 1 co-culture Notch3 reporter gene assay (Human Notch3-Gal4-VP16 [1]): 1.4 nM
IC50, Jagged1 co-culture Notch3 reporter gene assay (Human Notch3-Gal4-VP16 [1]): 0.8 nM
Kd (EGF32 NRR (cyno) [2]): 1.2 nM
EC50 (EGF32 NRR (cyno) [3]): 0.8 nM

B5: ICD3 Ab (antibody, V domains shown)
VH: QSLEESGGDLVKPGASLTLTCTASGFSFTKNAYMCWDRQAPGKRPEWIACIETGDGTTYYASWAKGRFTVSKTSSTTVTLQMTSLTAADTATYFCARELYDDYGDYFNLWGPGTLVTVSS
VL: ALVMTQTPSSVSAAVGGTVTINCQTSENFYSNDILSWYQQKPGQPPKLLIYEASTLASGVPSRFKGSGSGTQFTLTISDVQCDDAATYYCQGSVLDSGWYDISFGGGTEVVVKG
notes: also called ICD3 antibody
binding result [4]: no binding (tested: 1:5000 dilution)
binding result [5]: binds
binding result [6]: binds

B6: 12215 (antibody, human IgG1, kappa, V domains shown)
VH: QVQLVESGGGLVKPGGSLRLSCAASGFTFSTYVMHWVRQAPGKGLEWVGRIRSNTYGGITDYAAPVKGRFTISRDDSKNTLYLQMNSLKTEDTAVYYCARAEARYRDVWGQGTLVTVSS
VL: DIQMTQSPSSLSASVGDRVTITCRASQSISSHLNWYQQKPGKAPKLLIYAASNLQSGVPSRFSGSGSGTDFTLTISSLQPEDFATYYCQQDYHTPFTFGQGTKVEIKR
notes: also called MOR 12215
% inhibition, Delta 1 co-culture Notch3 reporter gene assay (Human Notch3-Gal4-VP16 [1]): -1%
% inhibition, Jagged1 co-culture Notch3 reporter gene assay (Human Notch3-Gal4-VP16 [1]): -5%
Kd (EGF32 NRR (human) [7]): 0.9 nM
Kd (EGF32 NRR (cyno) [2]): 2.7 nM
Kd (EGF32 NRR (mouse) [8]): 1 nM
EC50 (read off the curve) [9]: ~0.5 nM
EC50 (EGF32 NRR (human) [10]): 0.9 nM
EC50 (EGF32 NRR (cyno) [3]): 0.6 nM
EC50 (EGF32 NRR (mouse) [11]): 2.2 nM

B7: 20358 (antibody, human IgG1, kappa, V domains shown)
VH: QVQLVQSGAEVKKPGSSVKVSCKASGGTFRTYAMHWVRQAPGQGLEWMGGIVPYHGITDYAQKFQGRVTITADESTSTAYMELSSLRSEDTAVYYCARDDYSTYAFAYWGQGTLVTVSS
VL: B6 VL with S30A, H32Y, N34A, A50D, D91A, H93K, F96Y
Kd (EGF32 NRR (cyno) [2]): 2.7 nM
Kd (EGF32 NRR (mouse) [8]): 70 nM
EC50 (EGF32 NRR (cyno) [3]): 0.5 nM

B8: 12981 (antibody, human IgG1, kappa, V domains shown)
VH: B7 VH with V52I, Y54I, H55F, T58A, D59N
VL: B6 VL with S30A, H32Y, N34A, A50D, D91A, H93K, F96Y
notes: also called MOR 12981
% inhibition, Delta 1 co-culture Notch3 reporter gene assay (Human Notch3-Gal4-VP16 [1]): 16%
% inhibition, Jagged1 co-culture Notch3 reporter gene assay (Human Notch3-Gal4-VP16 [1]): 56%
IC50, Delta 1 co-culture Notch3 reporter gene assay (Human Notch3-Gal4-VP16 [1]): 22 nM
IC50, Jagged1 co-culture Notch3 reporter gene assay (Human Notch3-Gal4-VP16 [1]): 0.2 nM
Kd (EGF32 NRR (cyno) [2]): 19 nM
EC50 (read off the curve) (EGF32 NRR (cyno) [12]): ~0.6 nM
EC50 (EGF32 NRR (cyno) [3]): 0.4 nM

B9: 20337 (antibody, human IgG1, kappa, V domains shown)
VH: B6 VH with S53A, T55A, I59A, T60A
VL: B6 VL
% inhibition, Delta 1 co-culture Notch3 reporter gene assay (Human Notch3-Gal4-VP16 [1]): 18%
% inhibition, Jagged1 co-culture Notch3 reporter gene assay (Human Notch3-Gal4-VP16 [1]): 60%
IC50, Delta 1 co-culture Notch3 reporter gene assay (Human Notch3-Gal4-VP16 [1]): 6.4 nM
IC50, Jagged1 co-culture Notch3 reporter gene assay (Human Notch3-Gal4-VP16 [1]): 4.6 nM
binding result [13]: binds
Kd (EGF32 NRR (human) [7]): 0.5 nM
Kd (EGF32 NRR (cyno) [2]): 0.4 nM
Kd (EGF32 NRR (mouse) [8]): 4.4 nM
EC50 (EGF32 NRR (human) [10]): 0.8 nM
EC50 (EGF32 NRR (cyno) [3]): 0.6 nM
EC50 (EGF32 NRR (mouse) [11]): 0.7 nM

B10: 12229 (antibody, human IgG1, lambda, V domains shown)
VH: QVQLVESGGGLVKPGGSLRLSCAASGFTFSSYTMNWVRQAPGKGLEWVGRIKTKTNGGTTDYAAPVKGRFTISRDDSKNTLYLQMNSLKTEDTAVYYCARERSRAGSIFDPWGQGTLVTVSS
VL: DIVLTQPPSVSGAPGQRVTISCSGSSSNIGFNYVSWYQQLPGTAPKLLIYYNNQRPSGVPDRFSGSKSGTSASLAITGLQAEDEADYYCSTWTGTSESHVFGGGTKLTVLG
% inhibition, Delta 1 co-culture Notch3 reporter gene assay (Human Notch3-Gal4-VP16 [1]): 85%
% inhibition, Jagged1 co-culture Notch3 reporter gene assay (Human Notch3-Gal4-VP16 [1]): 77%
IC50, Delta 1 co-culture Notch3 reporter gene assay (Human Notch3-Gal4-VP16 [1]): 5.5 nM
IC50, Jagged1 co-culture Notch3 reporter gene assay (Human Notch3-Gal4-VP16 [1]): 0.7 nM
IC50 (read off the curve), Delta1 co-culture reporter gene assay (Human Notch3-Gal4-VP16 [14]): ~5 nM
Kd (cyno LBD [15]): 24 nM
binding result [16]: binds
EC50 (read off the curve) (cyno LBD [17]): ~0.3 nM
EC50 (cyno LBD [18]): 0.5 nM
IC50 (read off the curve), Jagged1 co-culture reporter gene assay (Human Notch3-Gal4-VP16 [19]): ~0.8 nM
